Reference: PMC9210550
Where two headings read alike, the source gives them in different places.

Experiments:
[1] = molecular target: T1, ZCCHC8 core (NEXT subunit);RBM7 core FAFA;MTR4 (human;human;human, UniProt Q6NZY4;Q9Y580;P42285 1-415+508-707;6-86;1-1042, internal_change|F13A;F52A|); assay: EMSA
[2] = molecular target: ZCCHC8 core delta HD;RBM7 core (NEXT subunit);MTR4 (human;human;human, UniProt Q6NZY4;Q9Y580;P42285 176-415+508-707;6-86;1-1042, internal_change||); assay: EMSA
[3] = molecular target: T2, ZCCHC8 core (NEXT subunit);RBM7 core (NEXT subunit);MTR4 (human;human;human, UniProt Q6NZY4;Q9Y580;P42285 1-415+508-707;6-86;1-1042, internal_change||); assay: EMSA
[4] = molecular target: ZCCHC8 core delta ZK;RBM7 core (NEXT subunit);MTR4 (human;human;human, UniProt Q6NZY4;Q9Y580;P42285 1-226+245-415+508-707;6-86;1-1042, internal_change||); assay: EMSA
[5] = molecular target: T2, ZCCHC8 core (NEXT subunit);RBM7 core …; assay: EMSA; remark: listed apart in the source
[6] = molecular target: T1, ZCCHC8 core (NEXT subunit);RBM7 core …; assay: EMSA; remark: listed apart in the source
[7] = molecular target: T2, ZCCHC8 core (NEXT subunit);RBM7 core …; assay: cryo-EM
[8] = molecular target: T2, ZCCHC8 core (NEXT subunit);RBM7 core …; assay: cryo-EM; remark: listed apart in the source

B1: 3' A5U5A10-tailed RNA duplex (dsRNA)
RNA 1: AGUGCGCUGUAUCUUCAAGGCCACU
RNA 2: AGUGGCCUUGAAGAUACAGCGCACUAAAAAUUUUUAAAAAAAAAA
[1]
  binding signal: ~3 fold weaker than NEXT
[2]
  binding signal: ~2 fold weaker than NEXT
[3]
  Kd: 42 nM

B2: 3' A20-tailed RNA duplex (dsRNA)
RNA 1: AGUGCGCUGUAUCUUCAAGGCCACU
RNA 2: AGUGGCCUUGAAGAUACAGCGCACUAAAAAAAAAAAAAAAAAAAA
[4]
  binding signal: ~4 fold tighter than NEXT on A20 tail
[5]
  binding signal: ~10 fold weaker than NEXT on A5U5A10 tail
[6]
  binding signal: ~2 fold weaker than NEXT on A20 tail

## ACAUGAGGAUCACCCAUGUAAUCUCUUUCAAAAAAUACAAAAAAAA (structured_RNA, 2'-pyrene modified U at position 36) [cryo-EM substrate 1]
[7]
  binding result: binds

B3: cryo-EM substrate 2 (dsRNA)
RNA 1: GGCGCGCGCCAAAAAUUUUUAAAAAAAAAA
RNA 2: GGCGCGCGCCAAAAAUUUUUAAAAAAAAAA
[8]
  binding result: binds
